Experimental findings from PMC5640511 (Current Biology, 2017) are described below.

The experiment has as its target Bub3 (recombinant, untagged) (human, UniProt O43684 1-328). The experiment is described as follows: SEC. For orientation: Size exclusion chromatography separates by hydrodynamic size, large species first.

Bub3 (recombinant, untagged), sequence (O43684 whole entry): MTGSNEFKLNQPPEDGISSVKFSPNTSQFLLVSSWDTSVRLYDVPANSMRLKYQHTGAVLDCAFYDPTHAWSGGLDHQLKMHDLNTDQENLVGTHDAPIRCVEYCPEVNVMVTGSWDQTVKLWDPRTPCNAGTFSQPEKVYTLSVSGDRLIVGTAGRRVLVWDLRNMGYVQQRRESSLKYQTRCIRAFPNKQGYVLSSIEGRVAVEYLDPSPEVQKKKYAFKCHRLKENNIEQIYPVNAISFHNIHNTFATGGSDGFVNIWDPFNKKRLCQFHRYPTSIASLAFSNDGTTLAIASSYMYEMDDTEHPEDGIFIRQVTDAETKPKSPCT

B1: BubR1 1-571 B1-LL (recombinant) (other)
chain: MAAVKKEGGALSEAMSLEGDEWELSKENVQPLRQGRIMSTLQGALAQESACNNTLQQQKRAFEYEIRFYTGNDPLDVWDRYISWTEQNYPQGGKESNMSTLLERAVEALQGEKRYYSDPRFLNLWLKLGRLCNEPLDMYSYLHNQGIGVSLAQFYISWAEEYEARENFRKADAIFQEGIQQKAEPLERLQSQHRQFQARVSRQTLLALEKEEEEEVFESSVPQRSTLAELKSKGKKTARAPIIRVGGALKAPSQNRGLQNPFPQQMQNNSRITVFDENADEASTAELSKPTVQPWIAPPMPRAKENELQAGPWNTGRSLEHRPRGNTASLIAVPAVLPSFTPYVEETARQPVMTPCKIEPSIRRVITISKSEYSVHSSLASKVDVEQVVMYCKEKIYAGVGEFSFEEIRAEVFRKKLKEQREAELLTSAEKRAEMQKQIEEMEKKLKEIQTTQQERTGDQQEETMPTKETTKLQIASESQKIPGMTLSSSVCQVNCCARETSLAENIWQEQPHSKGPSVPFSIFDEFLLSEKKNKSPPADPPRVLAQRRPLAVLKTSESITSNE
For B1, the binding result is “binds”.
